Data on 3 molecules can be found in patent US11325966.

Some targets named below: JR-CSF N392A (HIV-1) (UniProt P20871); JR-CSF N332A (HIV-1) (UniProt P20871); 92BR020 N386A (HIV-1); 92BR020 N332A (HIV-1); JR-CSF Q328A (HIV-1) (UniProt P20871); 92BR020 N392A (HIV-1); 92BR020 R327A (HIV-1); JR-CSF R327A (HIV-1) (UniProt P20871); JR-CSF G324A (HIV-1) (UniProt P20871); JR-CSF N339A (HIV-1) (UniProt P20871); 92BR020 (HIV-1); 92BR020 N156A (HIV-1); JR-CSF N362A (HIV-1) (UniProt P20871); JR-CSF N386A (HIV-1) (UniProt P20871); 92BR020 N136A (HIV-1); JR-CSF (HIV-1) (UniProt P20871); JR-CSF H33OA (HIV-1) (UniProt P20871); 92BR020 H33OA (HIV-1); JR-CSF D325A (HIV-1) (UniProt P20871); JR-CSF N295A (HIV-1) (UniProt P20871); JR-CSF I326A (HIV-1) (UniProt P20871); 92BR020 I326A (HIV-1); BG505 (T332N) (HIV-1); 92BR020 N301A (HIV-1); 92BR020 Q328A (HIV-1); JR-CSF N301A (HIV-1) (UniProt P20871); 92BR020 D325A (HIV-1).

Experiment in all cases: cell-based or functional assay
In assay [1] the target is 92BR020 N136A + N332A (HIV-1).
In assay [2] the target is 92BR020 N301A + N332A (HIV-1).
The target of assay [3] is 92BR020 N156A + N332A (HIV-1).
In assay [4] the target is 92BR020 N136A + N156A + N301A (HIV-1).
The target of assay [5] is BG505 (T332N) N295A (HIV-1).
The target of assay [6] is BG505 (T332N) N386A (HIV-1).
Assay [7] addresses BG505 (T332N) N392A (HIV-1).
Assay [8] concerns the target BG505 (T332N) N301A (HIV-1).
Assay [9] has as its target BG505 (T332N) N137A (HIV-1).
Assay [10] deals with BG505 (T332N) N156A (HIV-1).
The target in assay [11] is 118-virus panel (Env of HIV-1 pseudoviruses).

A value given as a limit tells only on which side of the number the result lay.

On to 354BG18 (antibody), for which the IC50 in TZM-bl assay in the assay with JR-CSF N392A (HIV-1) was 0.002 µg/mL; with JR-CSF N332A (HIV-1) it was over 50 µg/mL; in assay [1], over 50 µg/mL; in the assay with 92BR020 N386A (HIV-1), 0.003 µg/mL; in the assay with 92BR020 N332A (HIV-1), over 50 µg/mL; in assay [2] it was over 50 µg/mL. Further, the IC50 in TZM-bl assay in assay [3] is over 50 µg/mL.

With control mAb 12A12 (antibody), the IC50 in TZM-bl assay is 0.038 µg/mL with JR-CSF Q328A (HIV-1); 0.105 µg/mL with 92BR020 N392A (HIV-1); 0.23 µg/mL with JR-CSF N392A (HIV-1); 0.013 µg/mL in [4]; 0.044 µg/mL in assay [5]; 0.022 µg/mL in the assay with 92BR020 R327A (HIV-1). Moreover, the IC50 in TZM-bl assay in the assay with JR-CSF R327A (HIV-1) was 0.131 µg/mL; in assay [6] it was 0.03 µg/mL; in [7], 0.012 µg/mL; in [8] it was 0.027 µg/mL; with JR-CSF G324A (HIV-1) it was 0.236 µg/mL; with JR-CSF N339A (HIV-1), 0.028 µg/mL. Also, the IC50 in TZM-bl assay in the assay with 92BR020 (HIV-1) is 0.05 µg/mL; in the assay with 92BR020 N156A (HIV-1), 0.035 µg/mL; in the assay with JR-CSF N362A (HIV-1), 0.267 µg/mL; in the assay with JR-CSF N386A (HIV-1) it was 0.332 µg/mL; in the assay with 92BR020 N136A (HIV-1) it was 0.027 µg/mL; with JR-CSF N332A (HIV-1), 0.24 µg/mL. Further, the IC50 in TZM-bl assay was 0.025 µg/mL in [1]; 0.233 µg/mL with JR-CSF (HIV-1); 0.288 µg/mL with JR-CSF H33OA (HIV-1); 0.073 µg/mL in the assay with 92BR020 H33OA (HIV-1); 0.203 µg/mL in the assay with JR-CSF D325A (HIV-1); 0.203 µg/mL with JR-CSF N295A (HIV-1). Also, the IC50 in TZM-bl assay in the assay with 92BR020 N386A (HIV-1) was determined as 0.055 µg/mL; with JR-CSF I326A (HIV-1) it was 0.278 µg/mL; with 92BR020 N332A (HIV-1), 0.039 µg/mL; in assay [2], 0.007 µg/mL; in assay [9], 0.027 µg/mL; in the assay with 92BR020 I326A (HIV-1), 0.011 µg/mL. For the same molecule, the IC50 in TZM-bl assay with BG505 (T332N) (HIV-1) was determined as 0.03 µg/mL; in assay [10], 0.024 µg/mL; with 92BR020 N301A (HIV-1), 0.011 µg/mL; in the assay with 92BR020 Q328A (HIV-1), 0.028 µg/mL; in assay [3] it was 0.023 µg/mL; with JR-CSF N301A (HIV-1), 0.01 µg/mL. This molecule displayed an IC50 in TZM-bl assay with 92BR020 D325A (HIV-1) of 0.05 µg/mL.

B1: BG1 IgG (antibody, V domains shown)
VH: AEQLVESGGGLVPPGRSLRLSCSASGFYFPDYAMAWVRQAPGQGLQWVGFMRGWAYGGSAQFAAFAVGKFAISRDDGRNVVYLDVKNPTFEDTGVYFCAREQRNKDYRYGQEGFGYSYGMDVWGRGTTVVVST
VL: DIHMTQSPVSLSASVGDRVTITCRASHFIANYVNWYQQKPGKAPTLLIFESSTLQRGVPSRFSAYGDGTEFTLSINTLQPEDFASYICQQSHSPPVTFGAGTRVDQK
In the case of B1, the geometric mean IC50 in TZM-bl assay in assay [11] was found to be 0.67 µg/mL.
